Test results taken from publication PMC12092003.

What was measured:
[1] = target: HA-Ctla-4 (zebrafish cytotoxic T lymphocyte antigen-4, from pCDNA3.1-HA-Ctla-4) (zebrafish); assay: Western blot under non-reducing and reducing conditions; lysate of HEK293T cells transfected with pCDNA3.1-HA-Ctla-4 for 48 hr, mixed with loading buffer without or with β-ME; empty plasmid as control
[2] = target: Ctla-4 with EGFP-tag (labeled protein of the MST assay) (zebrafish); assay: MST; Monolith NT.115; EGFP-tagged Cd28 or Ctla-4 as labeled protein, unlabeled Cd80/86 titrated (initial 3.2 µM, 16 doubling dilutions), 10 min at room temperature, measured at 25 °C, 40% LED, medium MST power
[3] = target: Cd28 with EGFP-tag (labeled protein of the MST assay) (zebrafish); assay: as above

Kd [2] | Kd [3] | Substance | stoichiometry N [1]
– | – | HA-Ctla-4 (zebrafish cytotoxic T lymphocyte antigen-4, from pCDNA3.1-HA-Ctla-4) (receptor) | 2
500 nM | 2640 nM | recombinant soluble Cd80/86 (Cd80/86 extracellular domain) (domain or fragment) | –
